Consider three compounds from US11357817B2, “Immunoproteasome inhibitor” (The Regents of the University of California, priority 2017, dated 2022).

A value given as a limit tells only on which side of the number the result lay.

A word on the IC50: it is the point on the concentration scale where inhibition reaches its midpoint.

The target of experiment [1] is Succinyl-Leu-Leu-Val-Tyr-aminocoumarin (Artificial Sequence).
Experiment [2] has as its system 20S Plasmodium proteasome (Pf20S) β5 subunit. Put plainly: Proteasome activity assay, Pf20S β5 (suc-LLVY-AMC). The note with it: 150 nM inhibitor. In kind it is biochemical, Plasmodium falciparum. On the procedure:
(§1) Asynchronous P. falciparum cultures were grown up to 4-5% parasitemia, in 300 mL of RPMI media at 5.0% hematocrit. Cultures were then transferred to 50 mL conical tubes, pelleted via centrifugation at 800 g for 5 min, and washed once with 1×PBS and pelleted again as above. The PBS was removed and lysis buffer (0.15% saponin in PBS) was added on ice in 10 pellet volumes. Upon lysis of red blood cells, indicated by a clear red supernatant, the lysed cultures were centrifuged at 3200×g for 12 minutes at 4° C. The supernatant was removed by aspiration and the cells were washed twice using chilled PBS in microcentrifuge tubes. The cell pellets were then incubated on ice for 1 hour with occasional vortexing in a buffer consisting of 20 mM Tris-HCl pH 7.5, 5 mM MgCl2, 1 mM DTT, 100 μM E-64 and 1 mM AEBSF. This sample was then subjected to 3 rounds of freezing (−80° C.) and thawing (37° C.) and centrifugation at 6000×g for 10 min. The supernatant containing soluble P. falciparum protein was quantified by the BCA method (Pierce).
P. falciparum proteasome was enriched by two-chromatographic steps reported previously (10). In brief, 10 mg of P. falciparum protein was concentrated to 1 mL using a 100 kDa centrifugal filter unit (Amicon) and loaded onto a 5 mL anion exchange HiTrap DEAE FF column (GE Healthcare). […] The AMC fluorophore release was monitored at Ex 340/Em 465 nm at 24° C. using a Synergy HTX multi-mode reader (Biotek). […] Proteins were eluted using 20 mM Tris-HCl pH 7.5, 100 mM NaCl, 10% glycerol and 1 mL fractions were collected, evaluated for protease activity and pooled.
To estimate the concentration of Pf20S in the final pooled sample, protein was denatured and loaded into a 4-12% Bis-Tris Plus gel (Thermo Fisher Scientific) beside 60 to 100 ng of human constitutive proteasome (Boston Biochem). […] For inhibition assays, inhibitor and substrate were added simultaneously to the enzyme and the rate of AMC release was determined from 60 to 120 minutes and compared to a DMSO control.

The subject of experiment [3] is 20S Plasmodium proteasome (Pf20S) β1 subunit. Briefly: Proteasome activity assay, Pf20S β1 (z-LLE-AMC). The note with it: 150 nM inhibitor. Format: biochemical, Plasmodium falciparum. How it is done:
as §1, with “Cultures were then transferred to 50 mL conical tubes, pelleted via centrifugation at 800 g for 5 min, and washed once with 1×PBS and pelleted again as above.” left out
(§2) P. falciparum proteasome was enriched by two-chromatographic steps reported previously (10). […] The AMC fluorophore release was monitored at Ex 340/Em 465 nm at 24° C. using a Synergy HTX multi-mode reader (Biotek). […] Proteins were eluted using 20 mM Tris-HCl pH 7.5, 100 mM NaCl, 10% glycerol and 1 mL fractions were collected, evaluated for protease activity and pooled. […]

Experiment [4] concerns 20S Plasmodium proteasome (Pf20S) β2 subunit. Put plainly: Proteasome activity assay, Pf20S β2 (z-LRR-AMC). In kind it is biochemical. The settings on record: 150 nM inhibitor. How it is done: as §1, with “Cultures were then transferred to 50 mL conical tubes, pelleted via centrifugation at 800 g for 5 min, and washed once with 1×PBS and pelleted again as above.” left out
as §2

In the next experiment the target is T1, c20S (Homo sapiens, UniProt P20618+P28074).
T1 construct: purchased Boston Biochem
Briefly: Calculation of inhibition constants (inactivation kinetics), c20S. In kind it is biochemical. The settings on record: c20S. On the procedure: (§3) The rate of AMC release was calculated in the presence of serial dilution of each inhibitor. The rate of product formation were calculated at 30 min intervals for 4 hours, and normalized to activity DMSO control to calculate inactivation curves. Kobs values for each inhibitor concentration were calculated from inactivation curves, and inhibition constants KI and kinact were calculated by non-linear regression of Kobs and inhibitor concentration using GraphPad Prism 6 software.

The target of another experiment is Pf20S (Plasmodium falciparum, UniProt A0A5K1K7U1+Q8IJT1). Put plainly: Calculation of inhibition constants (inactivation kinetics), Pf20S. The note with it: Pf20S. Format: biochemical. On the procedure:
as §3

Experiment [5] concerns ABC16-Monster yeast cells. Briefly: microbe, parasite or virus in culture. Format: cell-based, S. cerevisiae. The note with it: Saccharomyces cerevisiae. On the procedure: ABC16-Monster yeast cells (15) were inoculated into 5 ml of liquid YPD media and grown to saturation (OD600>1.0) overnight at 200 RPM in a shaking incubator at 30° C. Cultures were diluted to OD600 0.005 to log phase. 100 μl of yeast cells were added to a 96-well plate and incubated with compound starting with a concentration of 150 μM, followed by 1:2 serial dilutions. An initial reading of OD600 (t=0 hrs) was recorded using a Synergy HT spectrophotometer, and cells were grown for a period of 18 hours at 30° C. After incubation, plates were read at OD600. Cells grown in the absence of compound were used as a negative control. Percent growth was calculated using the formula Ab600treated/Ab600control×100
IC50 values were determined by first subtracting the OD600 values at t=0 from those of the final reading and then using Graphpad Prism to calculate nonlinear regression on log(inhibitor) vs. response with variable slope (four parameters).
Each selection was cultured under vigorous shaking until the culture reached saturation. […] Single colonies were isolated, and IC50 assays were performed to determine the degree of evolved resistance vs. that of the parental strain.

In another experiment the test system is Dd2 parasites. Put plainly: Artemisinin synergy, 72 hour SYBR green assay with co-treatment. Format: cell-based, Plasmodium falciparum. How it is done:
Compound susceptibility was measured using the malaria SYBR Green I-based fluorescence assay (32). Asynchronous P. falciparum parasites (Dd2 strain) were cultured in standard conditions before being plated for the assays. Each compound was tested over 72 hours in technical duplicates on a twelve-point concentration curve prepared by three-fold dilution from 6.7 μM to 0.11 nM. At least three independent experiments were carried out for IC50 determination. Artemisinin and chloroquine were used as controls. IC50 values were obtained using normalized fluorescence intensity from SYBR green I and analyzed via non-linear variable slope four-parameter regression curve-fitting model in Prism 6 (GraphPad Software Inc).

Experiment [6] concerns the target 20S Plasmodium proteasome (Pf20S), enriched from P. falciparum schizont lysate (Plasmodium falciparum).
In experiment [7] the target is human constitutive 20S proteasome (human).
Experiment [8] addresses β5 subunit of the S. cerevisiae 20S proteasome (PRE2) with M45I (M120I in the pro-protein), lineage 2 (Saccharomyces cerevisiae).
For experiment [9], the target named is β5 subunit of the S. cerevisiae 20S proteasome (PRE2), wild type (Saccharomyces cerevisiae).
The target in experiment [10] is 20S Plasmodium proteasome (Pf20S), enriched from P. falciparum schizont lysate (Plasmodium falciparum). The source holds these as a separate data set.
Experiment [11] has as its target human constitutive 20S proteasome (human). The source holds these as a separate data set.
Experiment [12] shares this target. Briefly: inactivation kinetics of c20S, Suc-LLVY-AMC activity assay, non-linear regression of Kobs.
In experiment [13] the target is 20S Plasmodium proteasome (Pf20S), enriched from P. falciparum schizont lysate (Plasmodium falciparum). Put plainly: inactivation kinetics of Pf20S, Suc-LLVY-AMC activity assay, non-linear regression of Kobs.

On to “20S Plasmodium proteasome (Pf20S), enriched from P. falciparum schizont lysate (enzyme)”, for which the hydrolysis of suc-LLVY-AMC (AMC release) (fold of the c20S rate) in experiment [1] is below 2. Also, the hydrolysis of z-LLE-AMC (AMC release) (fold lower than c20S) with z-LLE-AMC was found to be 19. Also, the hydrolysis of z-LRR-AMC (AMC release) (fold of the c20S rate) with z-LRR-AMC was below 2.

On to `CCCCCC(=O)N[C@H](C(=O)N[C@@H](CCS(C)(=O)=O)C(=O)N[C@@H](CC(C)C)C(=O)[C@@]1(C)CO1)C(C)C` [Carmaphycin B], for which the “Pf20S β5 activity reduced” value in experiment [2] amounted to 45%. The “Pf20S β1 activity reduced” value in experiment [3] is 16%. In experiment [4], the “Pf20S β2 activity reduced” value is on record as 29%. Further, the Ki is 375 nM at c20S and 223 nM at Pf20S. Further, the IC50 in experiment [5] (GM (parental ABC16-Monster strain)) is 24.3 µM; in experiment [5] (resistant Lineage 1), above 150 µM; in experiment [5] (resistant Lineage 2), 52.7 µM; in experiment [5] (resistant Lineage 3) it was above 100 µM. Also, the “sensitization to ART” value is 2 fold in the experiment on Dd2 parasites (co-treatment with ART and 0.5 nM of the compound); 3 fold with Dd2 parasites (co-treatment with ART and 1 nM of the compound).

Consider Carmaphycin B (peptide), for which the Kinact came to 0.000192 s⁻¹ in experiment [6] and 0.00168 s⁻¹ in [7]. The Kinact/KI in experiment [6] worked out at 864 M⁻¹ s⁻¹; in [7], 4480 M⁻¹ s⁻¹. The same compound registered an average IC50 (uM) of yeast growth, resistant lineage 2 in [8] of 52.7 µM. The average IC50 (uM) of yeast growth, parental GM strain in experiment [9] is 24.3 µM. The inhibition of β5, β1 and β2 activity at 150 nM inhibitor (% reduction of β5 activity) in experiment [10] is 45. Also, the inhibition of β5, β1 and β2 activity at 150 nM inhibitor (% inhibition of β5 activity) in [11] was determined as 98. The figures for the Ki in experiment [12] and in experiment [13] were 375 nM and 223 nM, respectively.
